Article PMC2744670 (2009)

Biological target: T1, CCR1 (Homo sapiens, UniProt P32246)
T1 chain: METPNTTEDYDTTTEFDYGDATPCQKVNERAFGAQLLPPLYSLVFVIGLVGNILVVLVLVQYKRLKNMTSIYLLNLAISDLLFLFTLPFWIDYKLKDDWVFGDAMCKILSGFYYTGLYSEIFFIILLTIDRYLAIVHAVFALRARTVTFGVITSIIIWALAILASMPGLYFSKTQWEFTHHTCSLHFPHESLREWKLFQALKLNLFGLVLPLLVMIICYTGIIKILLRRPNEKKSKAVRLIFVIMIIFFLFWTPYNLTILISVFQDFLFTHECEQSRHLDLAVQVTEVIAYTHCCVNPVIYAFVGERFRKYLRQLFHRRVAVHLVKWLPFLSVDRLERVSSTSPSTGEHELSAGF
Experiment: competition binding with [125I]CCL3 on transfected COS-7 cells

B1: U83A (protein)
chain: FICSSPDAELFSEKSRMSSSVLLGCLLCCMDWSAAVPGKTEPFRKLFDAIMIKKLKSCSAAYPSDLDEGSMCDMADASPTSLELGLSKLDKES
Binder B1 has an IC50 of 0.4 nM.
